± gives the half width of the 95% confidence interval.
Experiments:
[1] = folding stability dG unfold from chymotrypsin proteolysis; higher = more stable
Experimental: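 Folding stability of de novo designed mini-proteins (<80 aa, no Cys; designed by TrROS, TrMRF, ProteinMPNN and the joint model) was measured by cDNA display proteolysis with trypsin and chymotrypsin. Each protease was used at 11 concentrations in a threefold dilution series plus a no-protease condition. K50 was inferred by Bayesian fitting of sequencing counts, and dG unfold was derived against a sequence-predicted unfolded-state K50 (Tsuboyama et al. method). Sequences shown include variable-length N-terminal GS-type padding (SAGGSAGG...) inside a display construct carrying a PA tag. Rows were kept only if the AF2 dimer inter-PAE was >15, to exclude likely homo-oligomers.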

[2] = folding stability dG unfold (combined trypsin and chymotrypsin); higher = more stable
Summary of the method: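 Unfolding free energy was derived, per protease or combined, against a sequence-predicted unfolded-state K50 and a shared folded-state K50, starting from K50 inferred by Bayesian fitting of sequencing counts. Digestion with trypsin and chymotrypsin was carried out on designed mini-proteins under 80 residues without cysteine in a PA-tagged cDNA display construct. Only designs with AlphaFold2 dimer inter-PAE above 15 were kept.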

Sequence	folding stability dG unfold [1] [kcal/mol]	folding stability dG unfold [2] [kcal/mol]
SAGGGSSVTYDPATGEVTVTLHPVDPHPGRLRSRTLPLPAPGSPEEVRERIRALVEAEPAWSTDLTAASAGG [r13_284_JUSTAS]	0.892 ± 0.12	0.423 ± 0.18
SAGGGSTVVTTTEPAAAVRARVEAEARARGVALDVDVTVEPTPEGPVVTFDVRVDPGAPAVPAANRVSAGGS [r16_262_JUSTAS]	0.0214 ± 0.23	-0.629 ± 0.25
SAGGGTVVDPGPRVVTITVRPPDGKPRTITLPLPDATPEEIRARLEAVAAALPEAGATVDVLDIRPLPSAGG [r13_29_JUSTAS]	0.941 ± 0.024	0.397 ± 0.064
SAGGIKELQEALREGNLPEIIKELKKRGYENVKIQPNPDEGTIEIEIERKDPEDGKPEEEELTIPLEPSAGG [r13_359_TrROS]	0.184 ± 0.084	-0.271 ± 0.21
SAGGIRLEIPPNWTPEEAKEQAEELANFFAKKGPMEVEDIEYKRDEKDGNPMIVGEIRDPKNGKEWTISAGG [r13_669_TrROS]	-0.127 ± 0.3	-0.754 ± 0.68
SAGGKITIDVNYNPEENNFRIKITWPNGKEKELPIPMEGMPAEDMRREAREFAQNLNPDGLKEVEIEPSAGG [r13_267_TrROS]	0.369 ± 0.21	0.285 ± 0.43
SAGGKITIEKKEDGTYTITINGKKFTFKFKPGAKVEIKIEKKKDGTYTITITVTNKDGSKKTFKIKLSAGGS [r16_231_TrROS_Hall]	4.85 ± 0.26	4.87 ± 0.47
SAGGLSVSSVSTGSDKITVTVTGSGSPVATVEIPPGLPNTEVTATVLPDGSVRVELKTGNTPRTIEVPLSAG [r5_533_JUSTAS]	-0.445 ± 0.14	-0.783 ± 0.28
SAGGLTLSTFESDEDVKPEWDPNKPVKVKVKTLTTTEPVPNRPHTVTTTTTLRENEEGTTPFTGTDTSAGGS [r16_300_JUSTAS]	0.612 ± 0.061	-0.11 ± 0.12
SAGGMAEELAKLLKELFPDEEVEVEVKVEEKEVNGKKYLTITVTVRNKKTGKKIKEIKLVIELPEEESAGGS [r8_207_TrROS_Hall]	4.23 ± 0.32	> 6
SAGGMESPVKAVDPSTGAERSFTIPREEAEALLAAGETTIEIPYSGGPMTVEITPLPDGTYAITGKAPSAGG [r13_171_JUSTAS]	0.206 ± 0.24	-0.16 ± 0.14
SAGGMESSVLSVSTITRSAPPGSPLASTTATVTVTKTDGRTIVTVPATGVVYTVNPDGTVTADPVDPPSAGG [r13_721_JUSTAS]	-0.515 ± 0.4	< -1
SAGGMIEKVEIREVDPETGEVTVTFHVPSEDLEKLGPIPFPGVKEVRFFPGEKTIEARMPLEDALKHSAGGS [r16_614_TrMRF]	0.538 ± 0.098	-0.0448 ± 0.19
SAGGMKKIKVPDGSEIGSVNPKGGIDYVKVKLPGSGVLVEKAVPKGGKLVIPKNIPVELVEIKDYPLSAGGS [r16_123_TrMRF]	-0.0202 ± 0.12	-0.366 ± 0.2
SAGGMKLTLTFTETSVLPDGTPVTTTSTTPLSPDVPVEEVAAALAETNPDVTVTVHEPSTGSTRTLRTSAGG [r13_663_JUSTAS]	0.0497 ± 0.13	-0.351 ± 0.14
SAGGMKVTPLGTEPRPDGTTTTTYLSTLPNGTPVTTTTTTSTIPPPPVPPFSPEEVAAAAARRAAAASAGGS [r16_8_JUSTAS]	0.249 ± 0.21	< -1
SAGGMLKVEVIEVPPDEVGPEKLRAEIKAKYPDVEVRFETLPDGTLRVTVEIPVPEEPSKPLPLEKKSAGGS [r16_535_JUSTAS]	0.743 ± 0.077	0.482 ± 0.3
SAGGMMRTVTEPLSPEELEELRKEGWTVLGTEPGKVTVRVPVVPPLSPEEVAQARAAGLSEAEAAAARSAGG [r19_115_JUSTAS]	0.587 ± 0.14	0.0214 ± 0.28
SAGGMPDRVRPFPFRAPVLRLDPPEPEEVEVVAFVFPDNRVLALARSPDPGRVLLAVDDGDRVLVADASAGG [r13_117_TrMRF]	0.12 ± 0.15	-0.477 ± 0.19
SAGGMPLSTESFVQESSGDGTPFTTTKTTYRDVNGNPLVTPVSTVDPVAGTTTTTVTVDGTPVTTTTPSAGG [r13_948_JUSTAS]	-0.386 ± 0.2	-0.701 ± 0.17
SAGGMPVPKEKVKSVLYLPHPESDEPEVLVLAELGGKPVLFVIPSELSLEEAIKAVEEGVEAGPIDLGSAGG [r13_225_TrMRF]	0.402 ± 0.14	-0.355 ± 0.27
